9 compounds from patent publication US8168592B2 (Amgen Inc., priority 2005, dated 2012) can be followed below.

Read-outs that look alike come from different tables or passages of the source. Square brackets hold non-standard residues; d marks the D form. Peptide text beside a SMILES is read from it. Oic = O=C(O)[C@@H]1C[C@@H]2CCCC[C@@H]2N1; 2Nal = N[C@@H](Cc1ccc2ccccc2c1)C(=O)O; hArg = N=C(N)NCCCC[C@H](N)C(=O)O; Cit = NC(=O)NCCC[C@H](N)C(=O)O; PEG = not defined here

Series [1] is described as follows: rat pharmacokinetic studies. The following applies: rat, 2 mg/kg, mean, n = 3.
Procedure: Rat pharmacokinetic studies. […] There were three rats per group (n=3), each weighing 250-325 g. Each group received either a 2 mg/kg intravenous or subcutaneous discrete administration. The approximate dose volume was 0.3 mL per rat. Approximately 0.25 mL of whole blood was taken per time point at the following post-dose collection times for the intravenous groups (in hours): 0.083, 0.25, 0.5, 1, 2, 4, 6, 8, 24, 48, 72, 96 and the following time points for the subcutaneous groups (in hours): 0.25, 0.5, 1, 2, 4, 6, 8, 24, 48, 72, 96. Whole blood samples were collected in microtainer vials containing EDTA as anticoagulant and were kept on wet ice until processed for plasma. The plasma was obtained by centrifuging the whole blood for approximately 5 min at 11,500 rpm. Plasma was transferred to new tubes and stored frozen at approximately −70° C. until quantitative analysis. […] The individual sample concentrations for each time point were averaged (n=3) within a given dose group using Excel 2000 software. The averaged plasma concentration-time data were analyzed by noncompartmental methods using WinNonlin v.3.3 software. Nominal sample times were used in the pharmacokinetic analysis. The area under the concentration-time curve was calculated using the linear/log trapezoidal method to determine exposure.
For a further series, the target named is T1, CGRP1 receptor (Homo sapiens, UniProt O60894+Q16602).
T1 construct: SK-N-MC cells express CRLR and RAMP1, which form CGRP1 receptor; endogenous in cells; host or cells: SK-N-MC human neuroblastoma cells
T1 sequence (Q16602 23-461): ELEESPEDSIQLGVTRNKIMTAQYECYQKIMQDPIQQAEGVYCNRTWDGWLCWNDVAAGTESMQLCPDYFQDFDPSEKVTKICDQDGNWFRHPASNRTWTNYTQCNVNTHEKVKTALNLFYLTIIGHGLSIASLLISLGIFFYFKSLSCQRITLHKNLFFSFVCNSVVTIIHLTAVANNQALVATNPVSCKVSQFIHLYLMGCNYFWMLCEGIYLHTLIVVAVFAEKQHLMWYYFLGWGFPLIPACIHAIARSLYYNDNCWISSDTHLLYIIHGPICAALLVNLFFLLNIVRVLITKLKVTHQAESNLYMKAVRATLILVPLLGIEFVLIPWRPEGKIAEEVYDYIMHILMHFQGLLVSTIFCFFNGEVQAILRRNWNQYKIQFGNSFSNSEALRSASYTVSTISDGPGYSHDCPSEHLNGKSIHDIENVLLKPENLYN
T1 sequence (O60894 27-148): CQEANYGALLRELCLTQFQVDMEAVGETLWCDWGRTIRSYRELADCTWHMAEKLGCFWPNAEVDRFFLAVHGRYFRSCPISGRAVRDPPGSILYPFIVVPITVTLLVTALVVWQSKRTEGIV
In words: in vitro CGRP1 receptor mediated cAMP assay in SK-N-MC cells. Type of series: cell-based. The method, boiled down:
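Intracellular cAMP served as the Gs-coupled CGRP1 readout in endogenously expressing SK-N-MC cells. After a 15-minute room-temperature step in plasma-free medium, cell lysates (30 minutes, 37° C) went into a competitive ELISA with a cAMP-AP conjugate and anti-cAMP antibody for 1 hour, then a 30-minute substrate enhancer step before reading.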
In general terms: Cyclic AMP is a second messenger, typically raised through Gs and lowered through Gi signalling.

The term MRT denotes a mean duration of stay, worked out from the concentration-time curve. One may read the Vss as the apparent volume that relates the amount in the body to the concentration in plasma or blood. A high value points to extensive tissue distribution. A word on the CL/F: it is clearance divided by bioavailability, as obtained after extravascular dosing. Usually Cmax stands for the highest concentration seen after dosing. Usually Tmax stands for the time from dosing to the highest level. In series [1] (IV), “SEQ ID NO: 15: 20 kDa PEG conjugate of SEQ ID NO:7 (reductive alkylation) (Ac-WVTHRLAGLLSRSGGVVRK(20 kDa PEG)NFVPTDVGPFAF-NH2)” registered an AUC0-inf of 12959 ng·h/mL, an AUC0-t of 12940 ng·h/mL, a CL of 154 mL/h/kg and an MRT of 1.10 h. Moreover, in series [1] (IV), the Vss came to 174 mL/kg and the t1/2 stood at 10.60 h. In series [1] (SC), the “AUC0-inf” value was found to be 1542 ng·h/mL, the AUC0-t turned out to be 1264 ng·h/mL, the apparent clearance CL/F is 1257 mL/h/kg and the Cmax worked out at 137 ng/mL. In series [1] (SC), the Tmax is 2.00 h and the t1/2 is 22.37 h.
In series [1] (IV), “SEQ ID NO: 40: double glutamine analog PEGylated through amine linkage (Ac-WVTHQLAGLLSQSGGVVRK(PEG)NFVPTDVGPFAF-NH2; reading uncertain)” showed an AUC0-inf of 10666 ng·h/mL, an AUC0-t of 10651 ng·h/mL, a CL of 187 mL/h/kg and an MRT of 2.63 h. In addition, in series [1] (IV), the volume of distribution (Vss) turned out to be 496 mL/kg and the t1/2 came to 32.57 h. In series [1] (SC), the “AUC0-inf” value was found to be 1223 ng·h/mL, the AUC0-t was 1212 ng·h/mL, the CL/F stood at 1634 mL/h/kg and the Cmax is on record as 121 ng/mL. Moreover, in series [1] (SC), the F % came out at 11%, the Tmax is 4.00 h and the t1/2 turned out to be 27.15 h.
In series [1] (IV), “SEQ ID NO: 32: PEGylated R11Cit, R18Cit analog (product of SEQ ID NO:31) (WVTHXLAGLLSXSGGVVRKNFVPTDVGPFAF; PEGylated; citrulline at 11 and 18; CGRP peptide; MOD_RES (1)..(1): …ON; MISC_FEATURE (5)..(5): xaa=citrulline; MISC_FEATURE (12)..(12): xaa=citrulline; MISC_FEATURE (19)..(19): PEGylated; MOD_RES (31)..(31): AMIDATION)” showed an AUC0-inf of 40431 ng·h/mL, an AUC0-t of 40250 ng·h/mL, a CL of 49 mL/h/kg and an MRT of 4.12 h. In series [1] (IV), this compound displayed a Vss of 204 mL/kg and a t1/2 of 42.78 h. For the same compound, in series [1] (SC), the “AUC0-inf” value was determined as 19046 ng·h/mL, the AUC0-t turned out to be 18933 ng·h/mL, the CL/F is reported as 105 mL/h/kg and the Cmax came to 1879 ng/mL. Also, in series [1] (SC), the F % is reported as 47%, the time to peak (Tmax) is on record as 4.00 h and the t1/2 came out at 29.98 h.
The term IC50 denotes the concentration needed to halve the response being measured. `CC(=O)N[C@@H](Cc1c[nH]c2ccccc12)C(=O)N[C@H](C(=O)N[C@H](C(=O)N[C@@H](Cc1c[nH]cn1)C(=O)N[C@@H](CCCNC(=N)N)C(=O)N[C@@H](CC(C)C)C(=O)N[C@@H](C)C(=O)NCC(=O)N[C@@H](CC(C)C)C(=O)N[C@@H](C)C(=O)N[C@@H](CO)C(=O)N[C@@H](CCCNC(N)=O)C(=O)N[C@@H](CO)C(=O)NCC(=O)NCC(=O)N[C@H](C(=O)N[C@H](C(=O)N[C@@H](CCCNC(=N)N)C(=O)N[C@@H](CCCCN)C(=O)N[C@@H](CC(N)=O)C(=O)N[C@@H](Cc1ccccc1)C(=O)N[C@H](C(=O)N1CCC[C@H]1C(=O)N[C@H](C(=O)N[C@@H](CC(=O)O)C(=O)N[C@H](C(=O)NCC(=O)N1CCC[C@H]1C(=O)N[C@@H](Cc1ccccc1)C(=O)N[C@@H](C)C(=O)N[C@@H](Cc1ccccc1)C(N)=O)C(C)C)[C@@H](C)O)C(C)C)C(C)C)C(C)C)[C@@H](C)O)C(C)C` [compound 850] (Ac-WVTHRLAGLAS[Cit]SGGVVRKNFVPTDVGPFAF-NH2): the IC50 at CGRP1 receptor (Table 2D, read-out: IC50) was 1.85 nM.
Regarding “SEQ ID NO:33 (Ac-WVTHRLAGLLSASGGVVRCNFVPTDVGPFAF-NH2)”, the “antagonist activity in cAMP assay, in words” value with CGRP1 receptor was “not well tolerated”.
Consider `CC(=O)N[C@@H](Cc1c[nH]c2ccccc12)C(=O)N[C@H](C(=O)N[C@H](C(=O)N[C@@H](Cc1c[nH]cn1)C(=O)N[C@@H](CCCNC(N)=O)C(=O)N[C@@H](CC(C)C)C(=O)N[C@@H](C)C(=O)NCC(=O)N[C@@H](CC(C)C)C(=O)N[C@@H](CC(C)C)C(=O)N[C@H](CO)C(=O)N[C@@H](CCCNC(N)=O)C(=O)N[C@@H](CO)C(=O)NCC(=O)NCC(=O)N[C@H](C(=O)N[C@H](C(=O)N[C@@H](CCCCNC(=N)N)C(=O)N[C@@H](CCCCN)C(=O)N[C@@H](CC(N)=O)C(=O)N[C@@H](Cc1ccc2ccccc2c1)C(=O)N[C@H](C(=O)N1CCC[C@H]1C(=O)N[C@H](C(=O)N[C@@H](CC(=O)O)C(=O)N[C@H](C(=O)NCC(=O)N1[C@H](C(=O)N[C@@H](Cc2ccccc2)C(=O)N[C@@H](C)C(=O)N[C@@H](Cc2ccccc2)C(N)=O)C[C@@H]2CCCC[C@@H]21)C(C)C)[C@@H](C)O)C(C)C)C(C)C)C(C)C)[C@@H](C)O)C(C)C` [compound 953] (Ac-WVTH[Cit]LAGLL[dS][Cit]SGGVV[hArg]KN[2Nal]VPTDVG[Oic]FAF-NH2), for which the concentration for half-maximal inhibition (IC50) at CGRP1 receptor (Table 2C, unconjugated peptide, read-out: Peptide IC50) is 2.66 nM.
Consider `CC(=O)N[C@@H](Cc1c[nH]c2ccccc12)C(=O)N[C@H](C(=O)N[C@H](C(=O)N[C@@H](Cc1c[nH]cn1)C(=O)N[C@@H](CCCNC(N)=O)C(=O)N[C@@H](CC(C)C)C(=O)N[C@@H](C)C(=O)NCC(=O)N[C@@H](CC(C)C)C(=O)N[C@@H](CC(C)C)C(=O)N[C@@H](CO)C(=O)N[C@@H](CCCNC(N)=O)C(=O)N[C@@H](CO)C(=O)NCC(=O)NCC(=O)N[C@H](C(=O)N[C@H](C(=O)N[C@@H](CCCCNC(=N)N)C(=O)N[C@@H](CCCCN)C(=O)N[C@@H](CC(N)=O)C(=O)N[C@@H](Cc1ccc2ccccc2c1)C(=O)N[C@H](C(=O)N1CCC[C@H]1C(=O)N[C@H](C(=O)N[C@@H](CC(=O)O)C(=O)N[C@H](C(=O)NCC(=O)N1[C@H](C(=O)N[C@@H](Cc2ccccc2)C(=O)N[C@@H](C)C(=O)N[C@@H](Cc2ccc3ccccc3c2)C(N)=O)C[C@@H]2CCCC[C@@H]21)C(C)C)[C@@H](C)O)C(C)C)C(C)C)C(C)C)[C@@H](C)O)C(C)C` [compound 138] (Ac-WVTH[Cit]LAGLLS[Cit]SGGVV[hArg]KN[2Nal]VPTDVG[Oic]FA[2Nal]-NH2), for which the IC50 on CGRP1 receptor (Table 2A, read-out: IC50) came to 3.45 nM.
For “Ac-WVTHRLAGLLSQSGGVVRCNFVPTDVGPFAF-NH2 [compound 35]”, the 50% inhibitory concentration (IC50) at CGRP1 receptor (Table 7, R11 and/or R18 stability analogs, with or without 20 kDa PEG, read-out: IC50) was 0.37 nM.
In the case of `CC(=O)N[C@@H](Cc1c[nH]c2ccccc12)C(=O)N[C@H](C(=O)N[C@H](C(=O)N[C@@H](Cc1c[nH]cn1)C(=O)N[C@@H](CCCNC(N)=O)C(=O)N[C@@H](CC(C)C)C(=O)N[C@@H](C)C(=O)NCC(=O)N[C@@H](CC(C)C)C(=O)N[C@@H](CC(C)C)C(=O)N[C@@H](CO)C(=O)N[C@@H](CCCNC(N)=O)C(=O)N[C@@H](CO)C(=O)NCC(=O)NCC(=O)N[C@H](C(=O)N[C@H](C(=O)N[C@@H](CCCCNC(=N)N)C(=O)N[C@@H](CCCCN)C(=O)N[C@@H](CC(N)=O)C(=O)N[C@@H](Cc1ccc2ccccc2c1)C(=O)N[C@H](C(=O)N1[C@H](C(=O)N[C@H](C(=O)N[C@@H](CC(=O)O)C(=O)N[C@H](C(=O)NCC(=O)N2[C@H](C(=O)N[C@@H](Cc3ccccc3)C(=O)N[C@@H](C)C(=O)N[C@@H](Cc3ccc4ccccc4c3)C(N)=O)C[C@@H]3CCCC[C@@H]32)C(C)C)[C@@H](C)O)C[C@@H]2CCCC[C@@H]21)C(C)C)C(C)C)C(C)C)[C@@H](C)O)C(C)C` [compound 139] (Ac-WVTH[Cit]LAGLLS[Cit]SGGVV[hArg]KN[2Nal]V[Oic]TDVG[Oic]FA[2Nal]-NH2), on CGRP1 receptor (Table 2A, read-out: IC50), the IC50 is 3.57 nM.
